Molecular target: aurka_human AURKA (UniProt O14965)
Sequence (O14965 whole entry): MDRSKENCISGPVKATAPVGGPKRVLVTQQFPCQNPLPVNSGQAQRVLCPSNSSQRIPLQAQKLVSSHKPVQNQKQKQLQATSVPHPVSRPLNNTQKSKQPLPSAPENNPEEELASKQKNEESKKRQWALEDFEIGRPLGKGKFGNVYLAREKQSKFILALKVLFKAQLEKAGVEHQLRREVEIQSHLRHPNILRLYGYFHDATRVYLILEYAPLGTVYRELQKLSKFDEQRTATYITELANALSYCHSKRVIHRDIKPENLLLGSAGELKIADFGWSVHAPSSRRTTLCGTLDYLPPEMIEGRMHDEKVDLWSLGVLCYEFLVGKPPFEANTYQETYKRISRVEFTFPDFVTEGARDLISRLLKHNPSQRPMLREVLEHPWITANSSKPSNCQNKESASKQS

- effect of a mutation on the interaction: disrupting interaction
Substance: Heterogeneous nuclear ribonucleoprotein K (Homo sapiens), P61978-2 S379A

— IntAct's records for PubMed 21821029
